Results as given in paper PMC3057708 (Molecular Biology of the Cell, 2011).

B1: GST-Sec4 (natural protein)
chain: MSGLRTVSASSGNGKSYDSIMKILLIGDSGVGKSCLLVRFVEDKFNPSFITTIGIDFKIKTVDINGKKVKLQLWDTAGQERFRTITTAYYRGAMGIILVYDVTDERTFTNIKQWFKTVNEHANDEAQLLLVGNKSDMETRVVTADQGEALAKELGIPFIESSAKNDDNVNEIFFTLAKLIQEKIDSNKLVGVGNGKEGNISINSGSGNSSKSNCC
B2: purified full-length Sro7, soluble (natural protein)
chain: MFGSKRLKNVKEAFKSLKGQNSETPIENSKASFKSKNSKTSTISKDAKSSSSLKIPISSNNKNKIFSLAETNKYGMSSKPIAAAFDFTQNLLAIATVTGEVHIYGQQQVEVVIKLEDRSAIKEMRFVKGIYLVVINAKDTVYVLSLYSQKVLTTVFVPGKITSIDTDASLDWMLIGLQNGSMIVYDIDRDQLSSFKLDNLQKSSFFPAARLSPIVSIQWNPRDIGTVLISYEYVTLTYSLVENEIKQSFIYELPPFAPGGDFSEKTNEKRTPKVIQSLYHPNSLHIITIHEDNSLVFWDANSGHMIMARTVFETEINVPQPDYIRDSSTNAAKISKVYWMCENNPEYTSLLISHKSISRGDNQSLTMIDLGYTPRYSITSYEGMKNYYANPKQMKIFPLPTNVPIVNILPIPRQSPYFAGCHNPGLILLILGNGEIETMLYPSGIFTDKASLFPQNLSWLRPLATTSMAASVPNKLWLGALSAAQNKDYLLKGGVRTKRQKLPAEYGTAFITGHSNGSVRIYDASHGDIQDNASFEVNLSRTLNKAKELAVDKISFAAETLELAVSIETGDVVLFKYEVNQFYSVENRPESGDLEMNFRRFSLNNTNGVLVDVRDRAPTGVRQGFMPSTAVHANKGKTSAINNSNIGFVGIAYAAGSLMLIDRRGPAIIYMENIREISGAQSACVTCIEFVIMEYGDDGYSSILMVCGTDMGEVITYKILPASGGKFDVQLMDITNVTSKGPIHKIDAFSKETKSSCLATIPKMQNLSKGLCIPGIVLITGFDDIRLITLGKSKSTHKGFKYPLAATGLSYISTVEKNNDRKNLTVIITLEINGHLRVFTIPDFKEQMSEHIPFPIAAKYITESSVLRNGDIAIRVSEFQASLFSTVKEQDTLAPVSDTLYINGIRIPYRPQVNSLQWARGTVYCTPAQLNELLGGVNRPASKYKESIIAEGSFSERSSDDNNANHPEHQYTKPTRKGRNSSYGVLRNVSRAVETRWDAVEDRFNDYATAMGETMNEAVEQTGKDVMKGALGF

Legend:
[1] = target: B2; assay: pull-down
GST-Sec4 = target: B1; assay: pull-down

| binding result [1] | fold binding to GTPγS-bound Sec4 over GDP-bound Sec4 (GST-Sec4) | Binder |
| --- | --- | --- |
| binds |  | B1 |
|  | > 5 fold | B2 |
